According to publication PMC10997057:

Molecular target: murine splenic AA amyloid extract (mouse (endogenous in spleen)) (UniProt P05367)
Assay: co-sedimentation; pulldown with murine splenic AA amyloid extract in the presence of 20 μg non-radiolabeled peptide (competition)

murine splenic AA amyloid extract (mouse (endogenous in spleen)), sequence (P05367 20-122): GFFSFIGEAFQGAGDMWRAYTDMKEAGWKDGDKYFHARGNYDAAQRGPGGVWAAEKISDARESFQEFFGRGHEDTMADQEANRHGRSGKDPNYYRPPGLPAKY

- % of ^99mTc-p5+14 bound in the presence of 20 μg non-radiolabeled peptide: 4%
Binder: GGGYSKAQKAQAKQAKQAQKAQKAQAKQAKQAQKAQKAQAKQAKQ [non-radiolabeled peptide p5+14]
